Assay: soluble on expression in E. coli; label from the status in PepcDB or PDB records
For “MSEQKTIRFIITRQDTADSTPYDEEFEIPYRPNLNVISALMEIRRNPVNVKGEKTTPVTWDMNCLEEVCGACSMVINGKPRQSCTALIDQLEQPIRLKPMKTFPVVRDLQVDRSRMFDSLKKVKAWIPIDGTYDLGPGPRMPEKRRQWAYELSKCMTCGVCLEACPNVNSKSKFMGPAPMSQVRLFNAHPTGAMNKSERLEALMDEGGLADCGNSQNCVQSCPKGIPLTTSIAALNRDTNLQAFRNFFGSDRV”, the “soluble on expression in E. coli” value was “not soluble”.
For “MSLGQGSILTKANTINNMEYVTEVFGAIPTEEQVSYQKEELTAFIHFGVNTFTGREWGDGTENPEIFNPTNLDADQWVKTLAEAGFGRVILTAKHHDGFCLWDSAYTKHDVASSPWKNGKGDVVKEVLEACAKYNIKFGVYLSPWDQNSEHYGDGNGGDYNEFYMNQLRELLTNYGPIAEVWMDGAKGSNVKQEYNFEEWFALIKKLQPECLIFSPQGPDIRWIGNEKGYAGEPCWSTIDIEKMKERENPTYLNNGEEGGPNWIVGESDVSIRPGWFYHESQDNEVKSLEKMMDIYFKSIGRNSVLLLNVPPNKEGKLHENDVNRLKKFGETIKELFNDDLALNKEVIVDGFANNDETYGANKIVDGDYDTYWAPDNSSKTGTIEIDLGGSKEFDVISLQEYIPLGQRVSSFNVEVLQGENWNKVYEGKTIGYKRLVRIAPTKGEKIRINITGSLEVPLINNVGVYKQPISIEEGHHHHHH”, the “soluble on expression in E. coli” value was “soluble”.
In the case of “MAHHHHHHMCLLIIEHLFYSPCTVTTVLSLKLFGGGEKTGKMSDVPKSQVGTDAKVAVAKKYTGEYYVKGMVGDKKSFAIEHSRGRQKKHTVNEFCVGDAIGRGAFAEVFQCWRPEEPHIVYAMKKIRKDLIVKRKQSLNVHTERDLLSDAKLRQKRVSCPWITDLVVAFQDQDFLYIVTEYCSGGDLISWLIRYDVFPEETARFYFVELVLALNALHKMGYVHRDVKPDNVLIDREGHVKLADFGLSKRDPDQAESTSVADDSYLTEDVTVDDDVKKRFRDKKERKVMFFSTVGSPAYIAPEVLIGRGYDYSCDWWSAGVILYEMIFGYPPFFNDNNTATAKKIIQFKEHLEFPKDQTTVSKEAIDLISHLIADSKERYGFEEIIRHPFCKGVPLTDSIRNEKAPFSVELNSPRDLQYFEPAPDNADIQKQPMTAVSREDQSVFVGFTSKLCDRNQSTTWSRALGRFHELQNFSDDD”, the “soluble on expression in E. coli” value is reported as “not soluble”.
For “MLRISRDLVIDEDDIEIGFVRASGPGGQNVNKVATSAQLRFDTRKLTLPEDATIRLARIAGQRMTKDGVIVIHAQRFRTQERNRQDAIDRLVEILSEALEHHHHHH”, the “soluble on expression in E. coli” value was “not soluble”.
With “GTPLSSDEKIRVLVWNIFKQQRAEWQSVLKNFGKDAHLVLLQEAQTTPELVRFATSNYLAADQVPALVLPQHPSGVMTLASAHPIYCCPLREREPILRLPKSALVTVYPLPDARLLMVVNIHAVNFSLGVDVYSKQLLPIGDQIAHHSGPVIMAGDFNAWSRPRMNALYRFAREMSLREVRFSDDQRRRAFGRPLDFVFYRGLSVHDASVLVTRASDHNPLLVEFSPGKP” the “soluble on expression in E. coli” value was “not soluble”.
In the case of “DVQLVESGGGLVQPGGSRKLSCAASGFTFSSFGMHWVRQAPEKGLEWVAYISSGSSTLHYADTVKGRFTISRDNPKNTLFLQMTSLRSEDTGMYYCARWGNYPYYAMDYWGQGTSVTVSSAKTTPPSVYPLAPGSAAQTNSMVTLGCLVKGYFPEPVTVTWNSGSLSSGVHTFPAVLQSDLYTLSSSVTVPSSPRPSETVTCNVAHPASSTKVDKKIVPRDC”, the “soluble on expression in E. coli” value is reported as “soluble”.
With “VVVGAERTELLLPLLRDKRVALVANATSVVGTEREHLLDNLLRQGVNVVKILGPEHGFRGDADAGATVKDERDVRTGIPIVSLYGKNKKPTPRMLADVDVLLFDMQDVGTRFFTYISTLHYVMEACAEEQKKLIVTDRPNPNDYVDGPILQDDCRSFVGVDPLPILHGLTIGELANMINGEGWLGKKEMKCDLTVVPMSGWKHGQEYALPVKPSPNLPTANAIAWYPSLCLFEATIMSVGRGTDFPFEVLGYPKKVFGSFVFVPRPIRGMDSNPLYKGRHCYGVDLRGEKAPRGLSLQLLIRYYQTARREGIKFVNRKQMFNLLAGTKELAQQIEKGRTEEQIRASWQSDLDKYHKLRKKYLLYPTPTE” the “soluble on expression in E. coli” value was “soluble”.
With “MTAQSYHPMIKEFPEFYGPLTCPGQFLALLILEFGLNFAEIQKLKWENFNWNFKYLTIEKAGIKRVLPIREKFAIRVKAINNADELFAKSRQFLYTELKKFTNYSSKEIREQYILHQVKAGKSIYELATLLGLTTITTLEKYYRLEHHHHHH” the “soluble on expression in E. coli” value was “soluble”.
With “VSIDVPERADLEQVRGRWRNAVAGVLSKSNRTDSAQLGDHPERLLDTQTADGFAIRALYTAFDELPEPPLPGQWPFVRGGDPLRDVHSGWKVAEAFPANGATADTNAAVLAALGEGVSALLIRVGESGVAPDRLTALLSGVYLNLAPVILDAGADYRPACDVMLALVAQLDPGQRDTLSIDLGADPLTASLRDRPAPPIEEVVAVASRAAGERGLRAITVDGPAFHNLGATAATELAATVAAAVAYLRVLTESGLVVSDALRQISFRLAADDDQFMTLAKMRALRQLWARVAEVVGDPGGGAAVVHAETSLPMMTQRDPWVNMLRCTLAAFGAGVGGADTVLVHPFDVAIPGGFPGTAAGFARRIARNTQLLLLEESHVGRVLDPAGGSWFVEELTDRLARRAWQRFQAIEARGGFVEAHDFLAGQIAECAARRADDIAHRRLAITGVNEYPNLGEPALPPGDPTSPVRRYAAGFEALRDRSDHHLARTGARPRVLLLPLGPLAEHNIRTTFATNLLASGGIEAIDPGTVDAGTVGNAVADAGSPSVAVICGTDARYRDEVADIVQAARAAGVSRVYLAGPEKALGDAAHRPDEFLTAKINVVQALSNLLTRLGA” the “soluble on expression in E. coli” value was “not soluble”.
In the case of “MGSDKIHHHHHHMTKLTAHPQTEGAFTVASLEFLKQLAQHNSRDWFKTHQDEYENTIRTPALRFIEQIQPHIIAISPRLTAVAKKVGGSLMRPQRDSRFSKDKTPYKTNIGIQFRHFQGKDVHAPGLYLHIAEDGCFIAAGIWHPESKALNAIRTCIDENPNGYKKALQSLTNHGFMMDGDSLTRPPKGFDKHHPMLTELKRKDFIAVKNIPFERLCQRDAVHYCAEQLAHCSQLMAYLCFALELDF”, the “soluble on expression in E. coli” value is reported as “not soluble”.
With “MSLKELIALKRKVGLPGVTFAAMADGIWVLQVLPGAGIEKTGLRKGHQIVGVGGKPLAGNKLEDLFKAIEANNITDTMSRGSSERMYSRMTRDTKTQGPVVVLNVKQSRQQEKPFLILCKKEMFRSKIIEIEEDEFEDEVLKAPLPVAVTFWGDSCEPCKEFVPVLEAESAKYAGKVKFVNINVDGNRKLADQLAVKEVPALMVYKGGSAVATATGKLPREKVAEMLQDAAGREGHHHHHH” the “soluble on expression in E. coli” value was “soluble”.
With “MKRSAINDILGHTRQFFSQHDVHLPPFASFSPAQWQQLDTAAWEEVFDLKLGWDVTAFGRNNFAAHGLTLFTLRNGSAKGMPYVKCYAEKIMHVRDAQVTPMHFHWRKREDIINRGGGNLIVELWNADSNEQTADSDITVVIDGCRQKHTAGSQLRLSPGESICLPPGLYHSFWAEAGFGDVLVGEVSSVNDDDHDNHFLQPLDRYNLIDEDEPAQLVLCNEYRQFR” the “soluble on expression in E. coli” value was “soluble”.
In the case of “MGSSHHHHHHSSGLVPRGSDLQEDEDGVYFSSYGHYGIHEEMLKDKIRTESYRDFIYQNPHIFKDKVVLDVGCGTGILSMFAAKAGAKKVLGVDQSEILYQAMDIIRLNKLEDTITLIKGKIEEVHLPVEKVDVIISEWMGYFLLFESMLDSVLYAKNKYLAKGGSVYPDICTISLVAVSDVNKHADRIAFWDDVYGFKMSCMKKAVIPEAVVEVLDPKTLISEPCGIKHIDCHTTSISDLEFSSDFTLKITRTSMCTAIAGYFDIYFEKNCHNRVVFSTGPQSTKTHWKQTVFLLEKPFSVKAGEALKGKVTVHKNKKDPRSLTVTLTLNNSTQTYGLQ”, the “soluble on expression in E. coli” value is reported as “soluble”.
For “MSLIEERLKHYLEKQIPARDQYIEQMEREAHEQQVPIMDLLGMESLLHLLKMAAPARILEIGTAIGYSAIRMAQALPEATIVSIERDERRYEEAHKHVKALGLESRIELLFGDALQLGEKLELYPLFDVLFIDAAKGQYRRFFDMYSPMVRPGGLILSDNVLFRGLVAETDIEHKRHKQLATKIDTYNQWLLEHPQYDTRIFPVGDGIAISIKRETKGDTDDEKAEGHHHHHH”, the “soluble on expression in E. coli” value was “soluble”.
For “APYRMAYIKKDPVDDARGSTNPFVRIPELSDEDGLIVARGEYVYCLLNLFPYNSGHMMVVPYRQEPNLEDLTAEEISELFAFGQAAIKVVKSVSRPDAINVGFNLGRASGGSVGEHLHMHIVPRWSGDANFMTVIDGTKVLPQLLRKTRSLLAQAWNDMDG”, the “soluble on expression in E. coli” value was “not soluble”.

— the DeepSol protein solubility set
